Measurements as given in US10513702B2, “Synthetic hammerhead ribozymes with ligand-responsive tertiary interactions” (The Board of Trustees of the Leland Stanford Junior …, priority 2015, dated 2019).
Residue numbers refer to the chain shown, from its start.

B1: L2b8-t47: previously optimized secondary-structure switching theophylline-responsive RNA device, SEQ ID NO: 3 (nucleic acid)
DNA: AAACAAACAAAGCUGUCACCGGAUGUGCUUUCCGGUCUGAUGAGUCCGUUGAGUAUACCAGCAUCGUCUUGAUGCCCUUGGCAGACUGUAUACGGAGGACGAAACAGCAAAAAGAAAAAUAAAAA
modifications: listed as RNA, chemistry not fully specified
B2: L2b8: previously optimized secondary-structure switching theophylline-responsive RNA device, SEQ ID NO: 1 (nucleic acid)
DNA: B1 DNA with A52U, G53C, U54C, A85G, C86G, U87A, G88C, U89G, A90G, U91G
modifications: listed as RNA, chemistry not fully specified
B3: L2b8-a1: previously optimized secondary-structure switching theophylline-responsive RNA device, SEQ ID NO: 2 (nucleic acid)
chain: AAACAAACAAAGCUGUCACCGGAAUCAAGGUCCGGUCUGAUGAGUCCGUUGUCCAUACCAGCAUCGUCUUGAUGCCCUUGGCAGGGACGGGACGGAGGACGAAACAGCAAAAAGAAAAAUAAAAA
modifications: listed as RNA, chemistry not fully specified

How the values were obtained:
[1] = test system: GFP reporter transcript (device in 3′ UTR; GFP/mCherry two-color reporter construct); test: Flow cytometry validation of reconstructed switch/ribozyme sequences in two-color reporter plasmid; format: cell-based, budding yeast strain W303a; conditions: for μ (-tgt), median GFP/mCherry ratio (basal level): absence of target ligand, at least 3 independent transformants, ± standard error of the mean
Source text: The RNA devices were individually synthesized, integrated into the two-color characterization plasmid, and assayed in yeast via flow cytometry. The μ values obtained from flow cytometry analysis of the reconstructed sequences are tightly correlated with those obtained through the FACS-Seq analysis (FIG. 3a; R^2=0.98). We compared the validated activation ratios (μ−target/μ+target) for several of the best performing switches from the tertiary interaction switch libraries with those from previously optimized RNA devices that function through secondary structure rearrangements (FIG. 3b, Table 1).
Specific switch sequences were synthesized from overlapping oligonucleotides using overlap-extension PCR as described for the device library constructions. These were gap-repair transformed into the yeast two-color screening plasmid along with control plasmids by the lithium acetate/single-stranded carrier DNA/polyethylene glycol method, with each switch sequence verified using Sanger sequencing. At least three individual colonies were picked and inoculated in SC-URA media. Cultures were grown overnight, back-diluted 20:1 to an OD600˜0.07 and then grown 6 hrs in the absence and presence of a ligand target, at the same ligand concentrations as used for the FACS-Seq assays. The cells were then spun down and resuspended in an equal volume of 1×PBS buffer (Life Technologies) with 1% BSA (Fraction V, EMD Millipore) and a DAPI viability dye (Life Technologies). GFP was excited at 488 nm and measured with a bandpass filter of 525/50 nm. mCherry was excited at 561 nm and measured with a bandpass filter of 615/20 nm. DAPI was excited at 405 nm and measured with a bandpass filter of 450/50 nm. Prior to each use, voltages of fluorescence PMT detectors were calibrated with MACSQuant calibration beads to fix GFP and mCherry levels. For each culture, 10 μl of sample was analyzed, which captured 50,000-150,000 events while also providing cell density measurements. The data was analyzed using a custom MATLAB program to gate for mCherry expression above the no-color controls and non-saturating values for GFP and mCherry, and then extract μ, the median GFP/mCherry ratio. Since cultures that contain tetracycline produce non-specific fluorescence in the GFP emission region, the μ values for this condition were corrected by subtracting a fixed offset.
Note that the NGS data is based on cells sorted through a FACSAria II Cell Sorter. An in-house flow cytometer (Miltenyi Biotec MACSQuant VYB) was used for validation measurements. The GFP and mCherry levels are given in arbitrary fluorescence units that differ between the two instruments, but in all cases are treated as a linear function of the actual protein levels in order to compute μ. […]

[2] = test system: GFP reporter transcript (device in 3′ UTR; GFP/mCherry two-color reporter construct); test: Flow cytometry dose-response assays on reconstructed theophylline-responsive RNA devices; format: cell-based, budding yeast strain W303a; conditions: theophylline 0-20 mM; 4-parameter logistic fit, Hill slope 1.0; [80% confidence interval]
Protocol: Median GFP/mCherry ratios were computed for at least triplicate independent cultures assayed at theophylline concentrations of 0, 0.16, 0.31, 0.62, 1.25, 2.5, 5, 10, and 20 mM. The data were fit to a 4-parameter logistic model with the Hill slope fixed at 1.0; the 80% confidence interval for the EC50 fit is shown. A range of one standard deviation over the replicates is shown for the mean activity levels and activity ratio.

[3] = test system: RNA device self-cleavage (ribozyme); test: In vitro SPR-based ribozyme cleavage assay; format: biochemical; conditions: 500 μM MgCl2, 25° C.
Protocol: Representative FACS-Seq sort identified theophylline-responsive RNA device cleavage kinetics and ligand sensitivity were determined by surface plasmon resonance (SPR), using previously described protocols. Briefly, the RNA device DNA templates were amplified by PCR (PFU Ultrall HS; Agilent) with primers containing overhangs corresponding to the T7 RNAP promoter and cis-blocking sequences that prevent device cleavage during in vitro T7 transcription (Table 2; SPR templates). A second PCR (KAPA HiFi PCR Kit; Kapa Biosystems) with short primers was performed to enrich the product for full-length sequences (Table 2; SPR_fwd_primer, SPR_rev_primer). […]
SPR-based cleavage assays were performed at various theophylline concentrations to generate dose-response curves. The RNA dissociation rate constant (kd) at each theophylline concentration ([theo]) was fit to the sigmoidal equation kd=kd,min+(kd,max)/(1+[theo]/IC50) using MATLAB, where kd,max and kd,min are the maximum and minimum RNA dissociation rate constants, evaluated in absence of and with the highest theophylline concentration assayed, respectively. […]

Row | Molecule | μ (-tgt), median GFP/mCherry ratio (basal level) [1] | Activation Ratio ([1]; 5 mM vs 0 mM theophylline, ± SEM) | EC50 [2] [mM] | kd, ribozyme cleavage (dissociation) rate constant ([3]; 1 mM theophylline) [s⁻¹] | kd, ribozyme cleavage (dissociation) rate constant ([3]; absence of ligand (0 mM theophylline)) [s⁻¹]
1 | sTRSV: wild-type tobacco ringspot virus hammerhead ribozyme, SEQ ID NO: 7; loop I TGTGCTT, loop II GTGA (DNA GCUGUCACCGGAUGUGCUUUCCGGUCUGAUGAGUCCGUGAGGACGAAACAGC; listed as RNA, chemistry not fully specified) [reference compound] | 0.051±0.003 | – | – | – | –
2 | sTRSVctl: inactive control ribozyme with scrambled catalytic core, SEQ ID NO: 8 (DNA GCUGUCACCGGAUGUGCUUUCCGGUACGUGAGGUCCGUGAGGACAGAACAGC; listed as RNA, chemistry not fully specified) [reference compound] | 5.8±0.3 | – | – | – | –
3 | B1 | – | 2.8±0.3 | 5.7 | – | –
4 | B2 | – | – | 4.9 | – | –
5 | B3 | 0.109±0.004 | – | 10.4 | 0.00283 | 0.01
